From PMC9204724 (iScience, 2022)
Read-outs that look alike come from different tables or passages of the source. Values belong to the compound of their own block, whether it stands above or below them.

Legend:
[1] = target: chicken skeletal muscle α-actin, filamentous (chicken) (UniProt P68139); assay: stopped-flow kinetics
[2] = target: α-actin–Tpm1.7 cofilament (chicken | human) (UniProt P68139); assay: stopped-flow kinetics
[3] = target: α-actin–Tpm3.1 cofilament (chicken | human) (UniProt P68139); assay: stopped-flow kinetics
[4] = target: T1, acto-Myo1C^0-ΔTH1 (no Tpm) (Homo sapiens, UniProt O00159); format: binding
T1 sequence (O00159 36-891, stated change not applied): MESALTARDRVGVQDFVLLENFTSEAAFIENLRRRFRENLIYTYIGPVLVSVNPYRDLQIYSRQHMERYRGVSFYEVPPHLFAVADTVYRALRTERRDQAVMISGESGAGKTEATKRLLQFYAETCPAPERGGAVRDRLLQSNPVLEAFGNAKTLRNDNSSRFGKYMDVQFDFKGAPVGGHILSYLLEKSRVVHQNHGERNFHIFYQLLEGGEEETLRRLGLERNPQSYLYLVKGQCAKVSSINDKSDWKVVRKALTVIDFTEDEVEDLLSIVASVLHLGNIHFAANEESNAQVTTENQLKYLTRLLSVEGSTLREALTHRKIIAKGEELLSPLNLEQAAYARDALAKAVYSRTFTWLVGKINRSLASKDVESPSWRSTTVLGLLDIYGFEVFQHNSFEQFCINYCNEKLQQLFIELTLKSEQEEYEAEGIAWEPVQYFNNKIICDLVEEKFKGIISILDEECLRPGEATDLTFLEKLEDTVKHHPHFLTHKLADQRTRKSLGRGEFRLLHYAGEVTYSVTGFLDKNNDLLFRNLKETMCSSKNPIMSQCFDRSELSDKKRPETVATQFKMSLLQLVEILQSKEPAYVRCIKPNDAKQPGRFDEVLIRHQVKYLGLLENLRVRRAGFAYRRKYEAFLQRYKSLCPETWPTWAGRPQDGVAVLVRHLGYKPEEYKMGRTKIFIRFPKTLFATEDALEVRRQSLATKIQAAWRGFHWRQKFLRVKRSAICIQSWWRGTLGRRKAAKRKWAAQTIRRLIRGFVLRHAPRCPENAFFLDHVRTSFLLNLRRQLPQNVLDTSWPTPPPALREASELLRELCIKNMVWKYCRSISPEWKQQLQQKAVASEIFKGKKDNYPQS

[5] = target: β-actin–AcTpm1.6 cofilament (human) (UniProt P60709)
[6] = target: β-actin–AcTpm2.1 cofilament (human) (UniProt P60709)
[7] = target: β-actin–AcTpm3.1 cofilament (human) (UniProt P60709)
[8] = target: β-actin–AcTpm4.2 cofilament (human) (UniProt P60709)
[9] = target: β-actin–Tpm1.6 cofilament (human) (UniProt P60709)
[10] = target: β-actin–Tpm2.1 cofilament (human) (UniProt P60709)
[11] = target: β-actin–Tpm3.1 cofilament (human) (UniProt P60709)
[12] = target: β-actin–Tpm4.2 cofilament (human) (UniProt P60709)
[13] = target: human β-actin, filamentous (human) (UniProt P60709)
[14] = target: T1, acto-Myo1C^0-ΔTH1 (no Tpm); assay: stopped-flow, pyrene-actin fluorescence, K0.[…] of fast phase vs [ATP]; format: binding

Kd [1]: 13.7 nM
kon [1]: 1.46e+06 M⁻¹ s⁻¹
Kd [2]: 19.6 nM
kon [2]: 1.33e+06 M⁻¹ s⁻¹
Kd [3]: 18.4 nM
kon [3]: 1.36e+06 M⁻¹ s⁻¹
Compound: human Myo1C^0-ΔTH1, tail truncated myosin-1C isoform C^0, co-produced with calmodulin (from UniProt P0DP23 1-149) (complex)

Kd [14]: 154000 ± 31000 nM
Compound: Nc1ncnc2c1ncn2[C@@H]1O[C@H](COP(=O)(O)OP(=O)(O)OP(=O)(O)O)[C@@H](O)[C@H]1O [ATP]

The next lines start with the compound.

Compound: Nc1ncnc2c1ncn2[C@@H]1O[C@H](COP(=O)(O)OP(=O)(O)O)[C@@H](O)[C@H]1O [ADP]
Kd [4]: 460 ± 80 nM

Compound: human non-muscle myosin-2A heavy meromyosin (NM-2A-HMM) with essential and regulatory light chains, phosphorylated (from UniProt P35579-1;P60660-1;O14950) (complex)
Kapp of the actin-activated steady-state ATPase (Michaelis–Menten fit, 30 °C) [5]: 17.7 µM
kcat/Kapp of the actin-activated steady-state ATPase (30 °C) [5]: 17400 M⁻¹ s⁻¹
Kapp of the actin-activated steady-state ATPase (Michaelis–Menten fit, 30 °C) [6]: 40.9 µM
Kapp of the actin-activated steady-state ATPase (Michaelis–Menten fit, 30 °C) [7]: 26.6 µM
Kapp of the actin-activated steady-state ATPase (Michaelis–Menten fit, 30 °C) [8]: 26.1 µM
kcat/Kapp of the actin-activated steady-state ATPase (30 °C) [8]: 23400 M⁻¹ s⁻¹
Kapp of the actin-activated steady-state ATPase (Michaelis–Menten fit, 30 °C) [9]: 27.8 µM
kcat/Kapp of the actin-activated steady-state ATPase (30 °C) [9]: 12400 M⁻¹ s⁻¹
Kapp of the actin-activated steady-state ATPase (Michaelis–Menten fit, 30 °C) [10]: 37.8 µM
kcat/Kapp of the actin-activated steady-state ATPase (30 °C) [10]: 10200 M⁻¹ s⁻¹
Kapp of the actin-activated steady-state ATPase (Michaelis–Menten fit, 30 °C) [11]: 19.6 µM
kcat/Kapp of the actin-activated steady-state ATPase (30 °C) [11]: 29100 M⁻¹ s⁻¹
Kapp of the actin-activated steady-state ATPase (Michaelis–Menten fit, 30 °C) [12]: 26.2 µM
kcat/Kapp of the actin-activated steady-state ATPase (30 °C) [12]: 11200 M⁻¹ s⁻¹

Compound: human tropomyosin Tpm1.8, non-acetylated (natural protein)
Tdiss [13]: 41.6 °C
